Source: patent publication US12559863B2, “Macrocyclic modulators of disease associated protein misfolding and aggregation” (RESQ BIOTECH, priority 2017, dated 2026)

Legend:
SOD1(A4V)-GFP = molecular target: T1, SOD1(A4V)-GFP (Homo sapiens, UniProt P00441, A5V); experiment: Fluorescence of E. coli cells co-expressing SOD1(A4V)-GFP and cyclic peptide; type: cell-based; conditions: co-expression of cyclic peptide; compared to random cyclic peptides from initial library
T1 construct: polyHis; expressed in transfected cells; host or cells: E. coli Origami 2(DE3) (BL21(DE3) for the FACS screen)
T1 sequence (P00441 whole entry A5V): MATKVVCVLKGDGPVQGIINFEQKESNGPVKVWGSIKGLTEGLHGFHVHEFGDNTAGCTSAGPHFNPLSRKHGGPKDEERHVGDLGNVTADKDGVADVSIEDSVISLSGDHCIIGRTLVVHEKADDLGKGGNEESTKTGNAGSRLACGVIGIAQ
From the text: Electrocompetent E. coli BL21(DE3) cells (Novagen, USA) carrying either the expression vector pETSOD1(A4V)-GFP, which produces SOD1(A4V)-GFP under control of the strong bacteriophage T7 promoter, or pETAβ42-GFP, which produces Aβ42-GFP under control of the T7 promoter, were co-transformed with the combined pSICLOPPS-NuX1X2X3-X5 vector library. Approximately 10^8 transformants carrying both the vector library and either pETSOD1(A4V)-GFP or pETAβ42-GFP vectors were harvested, pooled together, and grown in Luria-Bertani (LB) liquid medium containing either 0.005% (pETSOD1(A4F)-GFP) or 0.002% (pETAβ42-GFP) L-arabinose—the inducer of cyclic peptide production—at 37° C. with shaking. When the optical density at 600 nm (OD600) of the bacterial culture was about 0.5, 0.01 (pETSOD1(A4F)-GFP) or 0.1 (pETAβ42-GFP) mM isopropyl-β-D-thiogalactoside (IPTG) was added to the medium to induce overexpression of the reporter. […] The isolated cells were re-grown and screened for additional rounds in an identical manner until the desired enrichment in high-fluorescence clones was achieved.
For SOD1 or SOD1-GFP production, BL21(DE3) (Novagen, USA) or Origami 2(DE3) cells (Novagen, USA) were transformed with the corresponding SOD1- or SOD1-GFP-encoding vector, either with the appropriate pSICLOPPS vector or alone. […]
Bacterial cells corresponding to 1 mL culture with OD600=1 were harvested by centrifugation and re-suspended in 100 μL phosphate-buffered saline (PBS), transferred to a 96-well FLUOTRAC 200 plate (Greiner Bio One International, Austria), and their fluorescence was measured using a TECAN Safire II-Basic plate reader (Tecan, Austria). Excitation was set at 488 nm and emission was measured at 510 nm.

Aβ42-GFP = molecular target: T2, Aβ42-GFP (Homo sapiens, UniProt P05067); experiment: High-throughput sequencing of pSICLOPPS vectors isolated after bacterial sorting for enhanced Aβ42-GFP fluorescence; conditions: for Reads/Total TXXXR reads (%): relative to total TXXXR reads
T2 construct: a chimeric fusion of the human Aβ(1-42) peptide (Aβ42) with GFP; expressed in transfected cells; host or cells: E. coli BL21(DE3)
How it was run: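 Peptide inserts recovered from repeatedly sorted high-GFP clones were sequenced on Ion Torrent, excluding stop-codon-containing reads. Sorting used BL21(DE3) cells carrying pETAβ42-GFP plus the tetra-, penta- and hexapeptide pSICLOPPS library. Peptide production was induced with 0.002% L-arabinose and the reporter with 0.1 mM IPTG at OD600 ~0.5, at 37° C.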

[1] = after the second round of bacterial sorting for enhanced Aβ42-GFP fluorescence
[2] = after the second round of bacterial sorting for enhanced Aβ42-GFP fluorescence, relative to total pentapeptide reads
[3] = after the second round of bacterial sorting for enhanced Aβ42-GFP fluorescence, relative to total peptide reads
[4] = pSICLOPPS-NuX1X2X3-X5 vectors after the second round of bacterial sorting for enhanced Aβ42-GFP fluorescence
[5] = after the second round of bacterial sorting
[6] = after the second round of bacterial sorting, relative to total pentapeptide reads
[7] = after the second round of bacterial sorting, relative to total peptide reads
[8] = high-throughput sequencing of isolated pSICLOPPS-NuX1X2X3-X5 vectors after the second round of bacterial sorting for enhanced Aβ42-GFP fluorescence, selected cyclo-TXXXR pentapeptides
[9] = Table 4, hexapeptides, after second round of sorting

Substance: cyclo-TFSMW (cyclic)
- SOD1(A4V)-GFP fluorescence of E. coli cells (SOD1(A4V)-GFP): highest levels of cellular SOD1(A4V)-GFP fluorescence

Substance: cyclo-TASFW (cyclic)
- SOD1(A4V)-GFP fluorescence of E. coli cells (SOD1(A4V)-GFP): highest levels of cellular SOD1(A4V)-GFP fluorescence

Substance: AβC5-483 (TRVGR; cyclic pentapeptide)
- Reads/Total TXXXR reads (%) (Aβ42-GFP; [1]): 0.003%
- Reads/Total pentapeptide reads (%) (Aβ42-GFP; [2]): 0.001%
- Reads/Total peptide reads (%) (Aβ42-GFP; [3]): 0.001%
- Number of reads (Aβ42-GFP; [4]): 50

Substance: AβC5-94 (TVLFR; cyclic)
- Reads/Total TXXXR reads (%) (Aβ42-GFP; [5]): 0.391%
- Reads/Total pentapeptide reads (%) (Aβ42-GFP; [6]): 0.183%
- Reads/Total peptide reads (%) (Aβ42-GFP; [7]): 0.164%
- Number of reads (Aβ42-GFP; [8]): 7,442

Substance: AβC5-264 (TSGAR; cyclic)
- Reads/Total TXXXR reads (%) (Aβ42-GFP; [5]): 0.015%
- Reads/Total pentapeptide reads (%) (Aβ42-GFP; [6]): 0.007%
- Reads/Total peptide reads (%) (Aβ42-GFP; [7]): 0.006%
- Number of reads (Aβ42-GFP; [8]): 282

Substance: cyclo-SITPT [AβC5-380]
- Reads/Total SASPT-like reads (%) (Aβ42-GFP; Table 2): 0.356%
- Reads/Total pentapeptide reads (%) (Aβ42-GFP; Table 2): 0.002%
- Reads/Total peptide reads (%) (Aβ42-GFP; Table 2): 0.002%
- Number of reads (Aβ42-GFP; Table 2, after second round of sorting): 94

Substance: AβC5-239 (TTMHR; cyclic)
- Reads/Total TXXXR reads (%) (Aβ42-GFP; [5]): 0.020%
- Reads/Total pentapeptide reads (%) (Aβ42-GFP; [6]): 0.009%
- Reads/Total peptide reads (%) (Aβ42-GFP; [7]): 0.008%
- Number of reads (Aβ42-GFP; [8]): 384

Substance: AβC5-7 (TTLHR; cyclic pentapeptide)
- Reads/Total TXXXR reads (%) (Aβ42-GFP; [5]): 7.046%
- Reads/Total pentapeptide reads (%) (Aβ42-GFP; [6]): 3.301%
- Reads/Total peptide reads (%) (Aβ42-GFP; [7]): 2.958%
- Number of reads (Aβ42-GFP; [8]): 134,018

Substance: AβC5-474 (TTWPR; cyclic pentapeptide)
- Reads/Total TXXXR reads (%) (Aβ42-GFP; [1]): 0.003%
- Reads/Total pentapeptide reads (%) (Aβ42-GFP; [2]): 0.001%
- Reads/Total peptide reads (%) (Aβ42-GFP; [3]): 0.001%
- Number of reads (Aβ42-GFP; [4]): 51

Substance: AβC5-266 (TTLRR; cyclic)
- Reads/Total TXXXR reads (%) (Aβ42-GFP; [5]): 0.014%
- Reads/Total pentapeptide reads (%) (Aβ42-GFP; [6]): 0.007%
- Reads/Total peptide reads (%) (Aβ42-GFP; [7]): 0.006%
- Number of reads (Aβ42-GFP; [8]): 274

Substance: TPAWSD [AβC6-69]
- Reads/Total hexapeptide reads (%) (Aβ42-GFP; Table 4): 0.019%
- Reads/Total peptide reads (%) (Aβ42-GFP; Table 4): 0.002%
- Number of reads (Aβ42-GFP; [9]): 86

Substance: AβC5-147 (TAMHR; cyclic)
- Reads/Total TXXXR reads (%) (Aβ42-GFP; [5]): 0.085%
- Reads/Total pentapeptide reads (%) (Aβ42-GFP; [6]): 0.040%
- Reads/Total peptide reads (%) (Aβ42-GFP; [7]): 0.036%
- Number of reads (Aβ42-GFP; [8]): 1,611

Substance: TLDFFD [AβC6-63]
- Reads/Total hexapeptide reads (%) (Aβ42-GFP; Table 4): 0.025%
- Reads/Total peptide reads (%) (Aβ42-GFP; Table 4): 0.003%
- Number of reads (Aβ42-GFP; [9]): 114

Substance: AβC5-333 (THVRR; head-to-tail cyclic)
- Reads/Total TXXXR reads (%) (Aβ42-GFP; [5]): 0.007%
- Reads/Total pentapeptide reads (%) (Aβ42-GFP; [6]): 0.003%
- Reads/Total peptide reads (%) (Aβ42-GFP; [7]): 0.003%
- Number of reads (Aβ42-GFP; [8]): 137

Substance: AβC5-18 (TTIAR; cyclic)
- Reads/Total TXXXR reads (%) (Aβ42-GFP; [5]): 1.953%
- Reads/Total pentapeptide reads (%) (Aβ42-GFP; [6]): 0.915%
- Reads/Total peptide reads (%) (Aβ42-GFP; [7]): 0.820%
- Number of reads (Aβ42-GFP; [8]): 37,150

Substance: AβC5-355 (TATVR; head-to-tail cyclic)
- Reads/Total TXXXR reads (%) (Aβ42-GFP; [5]): 0.006%
- Reads/Total pentapeptide reads (%) (Aβ42-GFP; [6]): 0.003%
- Reads/Total peptide reads (%) (Aβ42-GFP; [7]): 0.003%
- Number of reads (Aβ42-GFP; [8]): 115

Substance: AβC5-275 (TAHVR; cyclic)
- Reads/Total TXXXR reads (%) (Aβ42-GFP; [5]): 0.013%
- Reads/Total pentapeptide reads (%) (Aβ42-GFP; [6]): 0.006%
- Reads/Total peptide reads (%) (Aβ42-GFP; [7]): 0.005%
- Number of reads (Aβ42-GFP; [8]): 249

Substance: AβC5-47 (TTIDR; cyclic pentapeptide)
- Reads/Total TXXXR reads (%) (Aβ42-GFP; [5]): 1.038%
- Reads/Total pentapeptide reads (%) (Aβ42-GFP; [6]): 0.486%
- Reads/Total peptide reads (%) (Aβ42-GFP; [7]): 0.436%
- Number of reads (Aβ42-GFP; [8]): 19,735

Substance: AβC5-20 (TTISR; cyclic)
- Reads/Total TXXXR reads (%) (Aβ42-GFP; [5]): 1.948%
- Reads/Total pentapeptide reads (%) (Aβ42-GFP; [6]): 0.912%
- Reads/Total peptide reads (%) (Aβ42-GFP; [7]): 0.818%
- Number of reads (Aβ42-GFP; [8]): 37,044

Substance: AβC5-475 (TTGDR; cyclic pentapeptide)
- Reads/Total TXXXR reads (%) (Aβ42-GFP; [1]): 0.003%
- Reads/Total pentapeptide reads (%) (Aβ42-GFP; [2]): 0.001%
- Reads/Total peptide reads (%) (Aβ42-GFP; [3]): 0.001%
- Number of reads (Aβ42-GFP; [4]): 51

Substance: AβC5-67 (TARDR; cyclic pentapeptide)
- Reads/Total TXXXR reads (%) (Aβ42-GFP; [5]): 0.747%
- Reads/Total pentapeptide reads (%) (Aβ42-GFP; [6]): 0.350%
- Reads/Total peptide reads (%) (Aβ42-GFP; [7]): 0.314%
- Number of reads (Aβ42-GFP; [8]): 14,213

Substance: AβC5-294 (TTPHR; cyclic)
- Reads/Total TXXXR reads (%) (Aβ42-GFP; [5]): 0.011%
- Reads/Total pentapeptide reads (%) (Aβ42-GFP; [6]): 0.005%
- Reads/Total peptide reads (%) (Aβ42-GFP; [7]): 0.005%
- Number of reads (Aβ42-GFP; [8]): 207
